Assay results from US7521536B2, “Glutamate transporter associated protein” (The Johns Hopkins University School of Medicine, priority 1999, dated 2009).

T1: GST-EAAT4 (Rattus norvegicus, UniProt O35921)
T1 construct: Full-length EAAT4 was subcloned into the EcoR I site of the GST-fusion vector pGEX-6P-1 (Pharmacia); made in house; host or cells: E. coli BL21 (Novagen)
T1 sequence (O35921 1-561): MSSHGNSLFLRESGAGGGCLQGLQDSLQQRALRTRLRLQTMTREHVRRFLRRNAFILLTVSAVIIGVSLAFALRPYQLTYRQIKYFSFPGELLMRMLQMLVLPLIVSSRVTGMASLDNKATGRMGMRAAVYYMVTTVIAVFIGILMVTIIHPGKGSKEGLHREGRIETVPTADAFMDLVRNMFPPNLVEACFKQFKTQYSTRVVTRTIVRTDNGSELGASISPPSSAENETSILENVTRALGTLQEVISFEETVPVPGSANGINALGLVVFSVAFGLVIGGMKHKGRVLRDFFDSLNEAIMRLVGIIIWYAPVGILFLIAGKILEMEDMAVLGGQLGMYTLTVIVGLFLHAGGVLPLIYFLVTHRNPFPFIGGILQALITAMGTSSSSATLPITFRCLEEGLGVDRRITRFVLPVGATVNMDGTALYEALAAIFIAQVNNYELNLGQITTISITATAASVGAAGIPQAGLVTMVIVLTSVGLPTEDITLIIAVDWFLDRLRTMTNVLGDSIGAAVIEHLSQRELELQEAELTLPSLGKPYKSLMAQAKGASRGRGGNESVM

T2: EAAT4 (Rattus norvegicus, UniProt O35921)
T2 sequence (O35921 1-561): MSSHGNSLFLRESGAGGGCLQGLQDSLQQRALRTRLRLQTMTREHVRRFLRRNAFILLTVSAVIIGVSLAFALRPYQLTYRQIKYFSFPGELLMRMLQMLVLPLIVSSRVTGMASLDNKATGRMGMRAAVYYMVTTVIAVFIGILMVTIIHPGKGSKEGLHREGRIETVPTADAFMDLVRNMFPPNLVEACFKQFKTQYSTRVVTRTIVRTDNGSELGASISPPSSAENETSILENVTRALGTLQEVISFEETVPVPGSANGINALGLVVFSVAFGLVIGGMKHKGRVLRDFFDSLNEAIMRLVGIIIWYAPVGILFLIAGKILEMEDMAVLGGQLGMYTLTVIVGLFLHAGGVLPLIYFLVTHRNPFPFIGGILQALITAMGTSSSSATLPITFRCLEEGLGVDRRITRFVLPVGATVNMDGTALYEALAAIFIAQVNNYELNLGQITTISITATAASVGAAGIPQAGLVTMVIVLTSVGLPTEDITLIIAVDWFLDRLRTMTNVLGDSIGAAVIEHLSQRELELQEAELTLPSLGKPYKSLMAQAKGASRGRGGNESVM

T3: GST-EAAC1 (Rattus norvegicus, UniProt P51907)
T3 construct: made in house; BL21 is described for GST-EAAT4
T3 sequence (P51907 1-523): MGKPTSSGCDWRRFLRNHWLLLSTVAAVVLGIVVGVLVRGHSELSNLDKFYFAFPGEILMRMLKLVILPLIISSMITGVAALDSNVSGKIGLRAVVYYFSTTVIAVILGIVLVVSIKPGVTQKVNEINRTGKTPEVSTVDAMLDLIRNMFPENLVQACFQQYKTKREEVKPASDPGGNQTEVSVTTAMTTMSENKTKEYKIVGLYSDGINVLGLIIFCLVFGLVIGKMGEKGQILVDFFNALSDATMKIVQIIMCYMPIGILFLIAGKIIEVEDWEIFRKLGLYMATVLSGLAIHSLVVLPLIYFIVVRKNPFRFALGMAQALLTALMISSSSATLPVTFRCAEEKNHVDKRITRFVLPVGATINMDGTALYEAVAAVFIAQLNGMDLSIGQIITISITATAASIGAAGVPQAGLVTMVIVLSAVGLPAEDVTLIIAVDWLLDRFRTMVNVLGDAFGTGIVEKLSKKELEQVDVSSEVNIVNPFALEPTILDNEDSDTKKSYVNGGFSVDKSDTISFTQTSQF

T4: EAAC1 (Rattus norvegicus, UniProt P51907)
T4 construct: For transient expression in HEK 293T cells, full-length EAAC1 cDNA was subcloned into the EcoR I/BamH I site; expressed in transfected cells; host or cells: HEK293 / HEK 293T, transient, pRK5
T4 sequence (P51907 1-523): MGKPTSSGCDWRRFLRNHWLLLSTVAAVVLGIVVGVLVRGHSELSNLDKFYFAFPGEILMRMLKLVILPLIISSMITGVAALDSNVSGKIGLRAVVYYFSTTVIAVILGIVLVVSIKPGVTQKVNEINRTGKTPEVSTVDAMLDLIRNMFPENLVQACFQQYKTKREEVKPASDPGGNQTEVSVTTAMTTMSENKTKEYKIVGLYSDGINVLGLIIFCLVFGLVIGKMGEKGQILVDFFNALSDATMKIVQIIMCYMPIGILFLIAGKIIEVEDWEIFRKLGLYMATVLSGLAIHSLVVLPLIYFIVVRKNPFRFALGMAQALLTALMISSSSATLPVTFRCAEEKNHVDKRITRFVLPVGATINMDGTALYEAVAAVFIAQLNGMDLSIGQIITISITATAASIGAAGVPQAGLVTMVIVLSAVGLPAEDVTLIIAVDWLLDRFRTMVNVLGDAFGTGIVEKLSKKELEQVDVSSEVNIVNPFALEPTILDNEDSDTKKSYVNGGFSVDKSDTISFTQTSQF


Tests used:
EAAT4 [1] = assay: EAAT4 protein level after cycloheximide treatment, densitometry, HEK-rEAAT4 cells; type: cell-based, rat; conditions: 12 hrs after cycloheximide, GTRAP coexpressed; HEK-rEAAT4 alone 54±0.6%
Procedure: To examine changes in the cell surface levels of EAAT4, a cell membrane-impermeant biotinylation reagent to label cell surface proteins selectively. Biotinylation of cell surface proteins was performed as described in Duan et al. (Duan, et al., J. Neurosci. 19, 10193-10200 (1999)). SOD1 was used to control for total protein and to determine whether the biotinylation reagent labels proteins in the intracellular compartment. Densitometry was performed using the NIH Image program.
However it is also possible that there is increased expression of the cell's native gene. To address this question cells were treated 48 hrs after transfection with cycloheximide, an inhibitor of protein synthesis. […] In contrast, 81±2% and 74±1.7% of the EAAT4 protein remains after 12 hrs when GTRAP4-41 and GTRAP4-48 are coexpressed, respectively.

GST-EAAT4 = biological target: T1, GST-EAAT4; assay: in vitro binding to GST-EAAT4 fusion protein; conditions: myc-tagged protein from HEK 293T lysate; no binding to GST
Procedure: Fusion proteins and in vitro binding. Full-length EAAT4 was subcloned into the EcoR I site of the GST-fusion vector pGEX-6P-1 (Pharmacia). Synthesis of recombinant proteins in BL21 cells (Novagen) was induced by 0.1 mM isopropyl β-D-thiogalactoside for 2 hrs at 30° C. and purified according to the protocol provided by the manufacturer (Pharmacia). HEK 293T cells were transfected with myc-tagged GTRAP4-41 or GTRAP4-48 and harvested in ice-cold immunoprecipitation (IP) buffer (phosphate buffered saline (pH 7.1), 5 mM EDTA, 1 mM sodium orthovanadate, 0.1 mM phenylmethylsulphonyl fluoride (PMSF), 0.3 μM aprotinin and 1% Triton X-100). The cellular lysate was incubated with GST or GST-EAAT4 immobilized on glutathione-Sepharose-4B, and washed to remove non-specifically bound proteins. Specifically bound proteins were eluted with 2×SDS loading buffer and analyzed by immunoblotting using an anti-c-myc antibody.
GTRAP4-41 and 4-48 Immunoprecipitation with Fusion Proteins. Full-length EAAT4 was subcloned into the EcoR I site of the GST-fusion vector pGEX-6P-1 (Pharmacia). […] Specifically bound proteins were eluted with 3×SDS loading buffer and analyzed by immunoblotting using an anti-c-myc antibody. […]

EAAT4 [2] = assay: cerebellar glutamate uptake after intra-cisternal injection of HSV amplicon vectors; type: in vivo, rat; conditions: 48 hrs after intra-cisternal injection of HSV amplicon vector, vs control HSVlac
EAAT4 [3] = biological target: T2, EAAT4; assay: Na+-dependent L-[3H]-glutamate uptake in HEK-rEAAT4 cells transfected with GTRAPs; type: cell-based; design: expressed in transfected cells
Procedure: To determine function relationships between GTRAPs and glutamate transporter proteins, sodium-dependent, glutamate transport activity was measured in HEK-rEAAT4 cells transfected with one or more interacting proteins.
To determine the effects of GTRAPs on glutamate transport function, Na+-dependent glutamate transport activity was measured in cells stably transfected with EAAT4, EAAC1, or another glutamate transporter protein and one or more interacter proteins. Stably transfected cells were grown in a monolayer on 6-well plates in MEM supplemented with 10% fetal bovine serum and L-glutamine. Assays were conducted when cells reached ˜80% confluency. The wells were pre-rinsed twice with 2 ml of ice-cold tissue buffer (50 mM Tris, 320 mM sucrose, pH 7.4). The cells were then incubated for 4 min at 37° C. with 1 ml of either sodium-(120 mM NaCl, 25 mM NaHCO3, 5 mM KCl, 2 mM CaCl2, 1 mM KH2PO4, 1 mM MgSO4, 10% glucose and […]) or choline-(120 mM choline Cl, 25 mM Tris-HCl pH 7.4, 5 mM KCl, 2 mM CaCl2, 1 mM KH2PO4, 1 mM MgSO4, 10% glucose and […]) containing buffer labeled with L-[^3H]Glu. Uptake was stopped by rinsing three times with 2 ml of ice-cold wash buffer (50 mM Tris pH 7.5 and 160 mM NaCl). Cells were solubilized in 1 ml of 0.1 N NaOH, and […] of lysate was analyzed for radioactivity in a scintillation counter. Na^+-dependent uptake was defined as the difference in radioactivity accumulated in Na^+-containing buffer and in choline-containing buffer. Protein content was measured and glutamate uptake calculated as nmole glutamate per mg of protein. In some cases, homogenates were examined for EAAT4, GTRAP4-41 and GTRAP 4-48 protein.
In an alternative protocol, HEK-rEAAT4 cells transfected with GTRAP4-41 and GTRAP4-48 were grown in a monolayer on 6-well plates in MEM supplemented with 10% fetal bovine serum and L-glutamine. Assays were conducted about 72 h after transfection using the method of Davis (Davis et al., J Neurosci. 18, 2475-2485 (1998)). […] Glutamate transport was measured by methods described herein.

GST-EAAC1 = biological target: T3, GST-EAAC1; assay: in vitro cell-free binding to immobilized GST-EAAC1; conditions: [35S]-labeled protein; not to GST alone
Procedure: The interaction of GTRAP3-18 with EAAC1 was examined using in vitro and in vivo methods. For in vitro cell-free binding, EAAC1 was expressed as a fusion protein with glutathione S-transferase (GST), and GTRAP3-18 was produced and labeled with [^35S]-methionine by in vitro transcription and translation. Purified GST or GST-EAAC1 fusion proteins immobilized on glutathione-Sepharose were incubated with [^35S]-labeled GTRAP3-18 protein.

EAAC1 = biological target: T4, EAAC1; assay: sodium-dependent [3H]-glutamate transport in HEK293 cells co-expressing EAAC1 and GTRAP3-18; type: cell-based
Source text: (§1) To test if GTRAP3-18 modulates EAAC1 function, sodium-dependent [^3H]-glutamate transport was studied in HEK293 cells co-expressing both proteins, 72 hrs after transfection (Rothstein et al. Neuron 16, 675-686 (1996); Lin et al., Neuron 20, 589-602 (1998)). Total glutamate transport progressively decreases with increasing GTRAP3-18 protein expression (FIG. 4). GTRAP3-18 negatively modulates EAAC1-mediated glutamate transport. GTRAP3-18 inhibited EAAC1-mediated transport, but had no effect on EAAT4 (n=6). The co-expression of GTRAP-3-18 has no effect on total EAAC1 protein expression. Analysis of HEK293 cells by confocal microscopy and surface biotinylation reveal no alteration in the membranous localization of EAAC1. Superoxide dismutase (SOD1) was used as a control. […] This effect is specific for EAAC1; co-expression of GTRAP3-18 with EAAT4 has no effect on transport activity. The inhibition of transport is not due to a decrease of EAAC1 protein level by the co-expression of GTRAP3-18, as quantitated by Western blotting. Similarly, the loss of EAAC1 activity is not due to altered protein trafficking; even at high levels of GTRAP3-18 expression, when little EAAC1-mediated transport is observed, EAAC1 surface expression is unaltered as determined by surface biotinylation and confocal microscopy.
To evaluate the biochemical nature of altered transport, kinetic analyses were performed with HEK293 cells co-expressing EAAC1 and GTRAP3-18. […] Similar results are observed with other cell lines (COS7 and C6 glioma).

EAAT4 [4] = biological target: T2, EAAT4; assay: sodium-dependent [3H]-glutamate transport in HEK293 cells co-expressing EAAT4 and GTRAP3-18; type: cell-based
Source text: as §1

Molecule | EAAT4 protein remaining (EAAT4 [1]) | binding to GST-EAAT4 fusion protein (GST-EAAT4) | cerebellar glutamate uptake (EAAT4 [2]) | Km (EAAT4 [3]; GTRAP co-expressed with EAAT4, EAAT4 alone 7 (GTRAP41 experiment) or 10 (GTRAP48 experiment)) | Vmax of glutamate uptake (EAAT4 [3]; GTRAP co-expressed with EAAT4, EAAT4 alone 222 (GTRAP41 experiment) or 208 (GTRAP48 experiment)) | increase in glutamate transport (EAAT4 [3]; HEK-rEAAT4 cells transfected with the GTRAP, vs vector alone) | binding to immobilized GST-EAAC1 (GST-EAAC1) | Vmax of glutamate transport (EAAC1; EAAC1 and GTRAP3-18 co-expressing cells, EAAC1 only 1.02) | Km (EAAC1; EAAC1 and GTRAP3-18 co-expressing cells, EAAC1 only Km=9 μM, n=4) | effect on EAAC1-mediated glutamate transport (EAAC1; HEK293 cells, 72 hrs after transfection, n=6) | decrease in affinity (Eadie-Scatchard plot of glutamate transport) (EAAC1; transfected HEK293 cells, n=4) | effect on EAAT4 glutamate transport (EAAT4 [4])
GTRAP4-41: glutamate transporter 4 associated protein, 2,388 amino acids (SEQ ID NO:2), 87% identity with β-spectrin III | 81±2% | bind | elevated | 11 µM | 605 pmol/mg/min | two | – | – | – | – | – | –
GTRAP3-18: glutamate transporter EAAC1 associated protein, 188 amino acids (SEQ ID NO:6), rat JWA protein homologue (protein, Rattus) MDVNLAPLRAWDDFFPGSDRFARPDFRDISKWNNRVVSNLLYYQTNYLVVAAMMISVVGFLSPFNMILGGIIVVLVFTGFVWAAHNKDILRRMKKQYPTAFVMVVMLASYFLISMFGGVMVFVFGITFPLLLMFIHASLRLRNLKNKLENKMEGIGLKKTPMGIILDALEQQEDSINKFADYISKARE | – | – | – | – | – | – | specifically binds | 0.99 nmol/min/mg protein | 40 µM | inhibited | 4-10 fold | no effect
